Measurements from patent US20070282017A1 (Harvard, published 2007).

What was measured:
[1] = target: Endogenous Ser65-phosphorylated BIMEL in cerebellar granule neurons (UniProt O88498)
Recombinant GST-Pin1 = target: T1, Recombinant GST-Pin1 (UniProt Q13526 1-163); test: GST-Pin1 pulldown from 293T lysates, anti-FLAG immunoblot
T1 construct: Bait in GST pulldown assays; not shown: glutathione S-transferase (GST) fusion partner
T1 sequence (Q13526 whole entry, the tested form may be a part): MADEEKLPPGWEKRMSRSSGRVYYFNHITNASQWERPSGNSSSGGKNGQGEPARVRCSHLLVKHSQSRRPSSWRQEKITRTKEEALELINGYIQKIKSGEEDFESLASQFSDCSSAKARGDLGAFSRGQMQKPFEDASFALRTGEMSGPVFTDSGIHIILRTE

Sequence of Endogenous Ser65-phosphorylated BIMEL in cerebellar granule neurons (O88498 whole entry): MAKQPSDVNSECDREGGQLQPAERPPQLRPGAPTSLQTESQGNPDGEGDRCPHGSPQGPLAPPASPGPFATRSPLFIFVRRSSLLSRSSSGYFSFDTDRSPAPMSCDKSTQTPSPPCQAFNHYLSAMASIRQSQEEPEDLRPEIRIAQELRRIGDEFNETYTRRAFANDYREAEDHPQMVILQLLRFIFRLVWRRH

binding result (Recombinant GST-Pin1)	Molecule	BIMEL protein levels in granule neurons after Pin1 RNAi lentivirus (immunoblot) [1]
–	Endogenous Pin1 in cerebellar granule neurons	46±1.5% reduction
no binding	FLAG-tagged JIP3 fragment 144-241 (other, UniProt Q9ESN9 144-241, looked up, Expressed in 293T cells; not shown: 3xFLAG tag of the 3xFLAG CMV-7.1 vector) ADQISRLEERESEMKKEYNALHQRHTEMIQTYVEHIERSKMQQVGGSGQTESSLPGRSRKERPTSLNVFPLADGMVRAQMGGKLVPAGDHWHLSDLGQ	–
